Consider 20 sequences from the DeepSol protein solubility set.

The nature of this data set: soluble on expression in E. coli; label from the status in PepcDB or PDB records.
For “MGSDKIHHHHHHMRTFQYANANPSANVSPMGRTSLATSAAKARGPLNGLIAERMRQLNLSTVKDFADYAGIGRTSIHDLVRGRTTTSGTWTKPSFDTLTKLAVALDKPTHELLYLIDPEAPGANLMFDVQQVPVYIAGQVGAGPQQLWESSDVVYVERQFAENRDLIAFTVVGDSMAGGRHPIHDGDVVIVDQRVGGEVNFPVVARLKDDGHVVKRCGPAASSTAPTRTSWTLTPQSLPLTVSPTWWDASSG”, the “soluble on expression in E. coli” value is recorded as “not soluble”. As for “MELNWALFYGLCPSIKMAHVFDKDEIMGLFESFRKARAKTKAEIKAAKVKARQEVKDATKLEIKRNKLLAQQEKALLKEERKGLKAKRKHEEKLAKTTLEQLKAGKFNKDNVLRYAGAARTLAPIVLPLIYRGITLAKEQANTKRALRLGIDPSDLARFAGHGAELKARIEGIRGSVKVSSLPKGFVADVEQRLDDLTFAVDNAEYMTPELRQRSHRSIANDLDQLARQIQDKIGE”, the “soluble on expression in E. coli” value was “not soluble”. The result for “MAHHHHHHMTRVLVNREDCSVQVKGDLITFLYATVAKDPLVVASRNVTQLLRSRKDDTAAKLVADGESYVLKFESLRDREGFIESIVRAQEAEQALSNDEWVASTICHAAVDVGVLDQEELRAIMSAAGQRGVEQAFDALETLVDRETFQLLPITEQMENDVLRQTPVLAAIFQERVVDKETKKSFWEAVVRKYFCFSRTFLEEDIQRLEGARSVATAASPPLSGSAATSSLSVINASSMCALPKGAATAMLDTDINEEDLLHLDENVEPLQQSFHGLFAAHRHLPVGSASVLPVNGAALPFPQETAEPSPVYRPRFVGFRVLHQLPSETIEKAALETLRTFWRSSVKQRRSILAKYTRISKKGGGGFIQRMCLEQADRAVQNT” reads “not soluble”. The result for “AIAAESNQNTDGAVEEGEDENTGDSNLQMELSAFRAKWMSELQPSSGGQRSFSRNAELRRRQETAKEEKARELFLKAVEEEQNGAVYEAIKYYKSAMQLVPDIEFKINYSRTPDPERGGSYLESSENNREIDDLLTYFQHQLTLGNDAMKLCEHETETSQVHISALPFEVLMYIFRWVVSCDLDLRALEQLSLVCRGFYICARDPEIWRSACLRVWGRSCTKMLPYSSWREMFLERPRVRFDGVYISKTSYIRQGEESLDGFYRAWHQVEYYRYLRFFPDGQVMMLTTPEDPLVTVPRLRSKNSRMDSIMFGHYRLSQDTDNQTKVYVVVSKRKEEKVSEYQRSRFCRRNPVPEAERSFHVGLQLSSGGRQRFNKLVWIHHSCHITYRSTGETVVTAFDVDKMYTPLFFARVKSYTAFSERPL” reads “soluble”; that for “MKGSRIELGDVTPHNIKQLKRLNQVIFPVSYNDKFYKDVLEVGELAKLAYFNDIAVGAVCCRVDHSQNQKRLYIMTLGCLAPYRRLGIGTKMLNHVLNICEKDGTFDNIYLHVQISNESAIDFYRKFGFEIIETKKNYYKRIEPADAHVLQKNLKVPSGQNADVQKTDN”, “soluble”.

With “MADNDFLSGEAIMVFKKEILDSHSDFTRSLSHQSASPEAYDQENVFSQDFQPFMKQDKETQNSASQPTSEQSLANRDPCTVPDDLREEMMRQRRKEDAFKTALCDAYKRSQACSYGDQCRFAHGVHELRLPMNPRGRNHPKYKTVLCDKFSMTGNCKYGTRCQFIHKIVDGNAAKLASGAHANTSSKSPARNAAAHNHSLFVPQGSTDRSMDLNQSLPIRQSDLVRAFARATRLDVSGYNSTAQLAQYFESQFQRIQQLSSHHH”, the “soluble on expression in E. coli” value is “not soluble”. In the case of “MSHVFQIHSSQYKSPSQIPQGKVLVVGGGNSGMQIAVEFAKTHEVTMSISHPLTFLPLHFFRKSIFNWLEKLGLLYAEVSTKRGKWFQKRKDPIFGFEGKELIRNGAIQLQEKVVSASENNIMFQNGETYSAESIIWSTGFIQNYNWIEIEKVVNENGLPNHIKGISPVRGLYYIGLEHHHHHH”, the “soluble on expression in E. coli” value is listed as “soluble”. “MYHSLFESLCMVPDPRIERKKIYPLDFLLLIVFLSTLSGNTSWYEIEDYAEEYEEELKSLYEMLTGHQLMHTMPSHDTLNRSISLLDVEAFEGAYKRWIEGFISATSGKHICIDGKTMRGVKKLSFDTQSHVVSAFSPQDMCSLAQLYIDRKTNEIPAIHQLLDLLDLNGAVVSIDAIGTQTAIAEQIIDKGGNYVLCVKANQSLSLQEIEAYFCPLFQKHILLDEQTELSHGRIETRRYESILNPLEIEANEVLTRWKGLRSIHKVVRKRRDKKSDKTSEEVAYYISSLTDVSSLKQAIRGHWAIENKLHHCLDVYFGHDASHKRTRNVAQIMDIIQKINLLIIERLKTNMKSSIPRIQKKLARMKPQQLITIQF”: the “soluble on expression in E. coli” value is “not soluble”. The result for “DFELLHKLGGGNYGDVHLASVKDCNFVCALKRLSIKKLADFDIATQLRREIEIAFNTRHKYLLRTYAYFFDETDIYLIMEPCSNGMLYTELNRVKCFAPPTAARYVAQLAEALLYLHQHHILHRDIKPENILLDHNNNIKLADFGWSVHDPDNRRKTSCGTPEYFPPEIVGRQAYDTSADLWCLGIFCYELLVGKTPFVGKDTDQICKNIHSMHFKIPENIPSEAKDLIANLLLRDGSRRLALHRVVNHQFLLKYYYLPNNL” reads “soluble”; that for “AHHHHHHGSKIARVNGLWITIPNVRYSFFNTPYIGHRIGTAVDVYFEDRALFPFEEGKLIEVRKIRTPRYIPVDHDYLMVFKLGEFCLKVLHVDPSVKIGEKVFLGDEIGKLRLSGFFSPWSDKHAHFEVRDCNDRYRARGAFPLFPEVKPLVPIVKGNTFEVVERKGHYLWLKPLETKGKGMTPLGNIEGGLPHYRYGAIFSGREGKLFGIDVKAQEILENGVGIFKPNFEVLANGVKVRGIGVYCNEERVKLIGGNFEVGDIIKIEIKARLGT”, “not soluble”; that for “VTDTDLITAGESTDGKPSDAAATDPPDLNADEPAGSLATMVLPELRALANRAGVKGTSGMRKNELIAAIEEIRRQANGAPAVDRSAQEHDKGDRPPSSEAPATQGEQTPTEQIDSQSQQVRPERRSATREAGPSGSGERAGTAADDTDNRQGGQQDAKTEERGTDAGGDQGGDQQASGGQQARGDEDGEARQGRRGRRFRDRRRRGERSGDGAEAELREDDVVQPVAGILDVLDNYAFVRTSGYLPGPHDVYVSMNMVRKNGMRRGDAVTGAVRVPKEGEQPNQRQKFNPLVRLDSINGGSVEDAKKRPEFGKLTPLYPNQRLRLETSTERLTTRVIDLIMPIGKGQRALIVSPPKAGKTTILQDIANAITRNNPECHLMVVLVDERPEEVTDMQRSVKGEVIASTFDRPPSDHTSVAELAIERAKRLVEQGKDVVVLLDSITRLGRAYNNASPASGRILSGGVDSTALYPPKRFLGAARNIEEGGSLTIIATAMVETGSTGDTVIFEEFKGTGNAELKLDRKIAERRVFPAVDVNPSGTRKDELLLSPDEFAIVHKLRRVLSGLDSHQAIDLLMSQLRKTKNNYEFLVQVSKTTPGSMDSD”, “not soluble”.

In the case of “MREIIFLVEEAEEGGFVARALGEAIFTEGETWEELKEMVRDAVRCHFGEEAPPIIRLHFVREEVLTP”, the “soluble on expression in E. coli” value is on record as “soluble”. Regarding “MGSDKIHHHHHHMRIAVIGGGASGMVTAYLLDKQGHHITVFERQPMLGGHIRTLNKNVKPNQSDCNEMLESGVLEFPTVFHNFVALMQELGVELEPIRVGSALFPKDGSPFFSKVTNENNYTGIQRFIEYLRFDTIHTRSLGLWLKTRFAQMEDFYNRPLSQYVNNQSISNTWLKLLTMYSYSMPFELIDNFPAEMGIPMLRDYLAVKWLRIKGGVYSYIEKILERFQGEVLLNVEIVNISRSPDGVIIQRSHGEIQEFDKVVFATPPDQVIALLADPTEAEIKRFSDWKANYATTTIHTDIFMYDHHHIHHPSEFDFFQTDTQWGYNSCLNQLCGISSPQHYFLSFQLEELIAKDRIIHTQEHHTPLYTTESFRYRDEVVATNGENNTYYAGAYLGDGLHEGAIASAFRVAQLIGSPLAVSISGFNDRNADTVEIAADTAGIGKYLTHPRFHRS”, the “soluble on expression in E. coli” value is reported as “not soluble”.

On to “MDGYTGSHVVRCALRLAPLVFVRPGELRKAEWKDIDLDGGEWRYTVTKTNTPHIVPLSTQAVEILKELQALTGRSRFVFPGARTNGRPMSDNAILAALRRMGIDKEEMSGHGFRAMARTILDEVLGVRPDFIEHQLAHSVRDPLEHHHHHH”, for which the “soluble on expression in E. coli” value is reported as “not soluble”. The entry for “MVLKERHKKICLLPSYSRLAHYPGLLMLTTLIYRSHIRGDEPVKKIEEMVSIANRRNMRSDVTGILLFNGSHFFQLLEGPEEQVQMIYRAICQDPRHYNIVELLCDYAPARRFGKAGMELFDLRLHERDDVLQAVFDKGTSKFQLTYDDRALQFFRTFVLATEQSTYFEIPAEDSWLFIADGSDKELDSCTLSSNINDHFAFHPIVDPLSRRIIAFEAIVQKNEDSPSAIAVGQRKDEEIYTADLKSKALAFAMAHALKLGDKMISINLLPMTLVNKPDAVSFLLDEIKANALVPEQIIVEFTESEVISRFDEFAEAVKSLKAAGISVAIDHFGAGFAGLLLLSRFQPDRIKISQELITNVHKSGPRQAIIQAIMKCCTSLEIQVSAMGVATPEEWMWLESAGIEMFQGDLFSKAKLNGIPSVAWPEKK” is “not soluble”; for “MAHHHHHHMGYLLEREQQRYSRHESAESATAFFASRGQTIDILGRTDPNQIKGNFFGLELYQDAMKVVMQRYTPEKRLTSADLWQPNALGDAPPPRHTLHRKLDDFLYLIVQEGATGKWTIPHTARKDDESLRMTADRAISSQNSEGLDCYVWSNAPQATVFLKDDNTRLFIYAATYLAGRPQFASFEPKPKDHAWVTRHELLQYSDTFKSAELLKALLDISADGTFEA” it is “not soluble”; for “MSVASETNWKKLDEKIAISGQISVDDVAAIAAAGYKSIICNRPDGEGGEHQPGSTELEEAAKAAGLQFAYLPVEIGQVSDEKCSAFHQLMATLPGPVLAFCNSGNRARALYSRDVGTTTTPAETISAACDWEHEAAAVTEAESEAAGAAAVSAASSRDEAAGKSIPVTPACNWDNAFDIVVVGGGSAGLGVTASLLRRRSSLRIAIIEPNDKHYYQPAWTLVGGGAYAVDQTVRNTADVIPHGAEWIKAEVSGFSPNDNLVHLADGRTIGYQQLIVCPGIRLAWEKIEGIQETLGKNGVTSNYLFDLAPYTWSLTQQLKGGKALFTQPPMPIKCAGAPQKAMYLSCDYWQRQGVLDKIEVEFDSAGAVLFGVADFVPPLMEYVRKYHANLVFNSNLVKVNGPEKIATFEIKNEAGEVTRVDKPFDMLHVTPPQAAPDFLRDSPLADASGYCEVNPKTLQHTRFANIFSLGDACSSPNTKTAAAVRKQIVIVAENLLAAKDGREFHAVYDGYGACPLTVENGKVVLAEFGFGGKLLPTFPLNPAVARKLYWWFKVKLFPWLYWEGMLKGREWLTRSTETKLEHHHHHH” it is “soluble”. The entry for “MGSDKIHHHHHHAKPVTSETMAAKTVGLQIYSLGKELYADVPGGLKKIKQMGYTNLELAGYKEGKIGGVDMMEFKKMVDDAGLKITSSHVNPPVREYTKANRSQISEYWKKTADDHAKLGVKYLIQPGQPSTRSTEETAFVCEIFNEAGKIVKAAGIPFGYHNHEMEFAKVNPGSTEAKLGRRVKGDCIYELFLKNTDPSLVFFEMDVYWAVMGQQDPIEWLKKYPNRIKVLHIKDRAILGESGMMNFENIFRQAYANGIKDYFVELEGMPDGRSQFEGVKGCVDYLLKAPFVK” is “not soluble”. Turning to “MFVLNIFSTTHKQRGLNRASCPPLGNYSNNHTLAYRVKCISEETRDSNSLVSSLNRKLWKTSVAGSDIPMIYSPFLEDMQNTLFASFETVEDYPLSEFLASAQSSKKPARIESWCYQCPKFRKIRLTYLDAGVAAQVFNAVWYPISSLELPILGVDFLSFGGKNVLCVMDFQPLMNDQYYLDKYIQPLHPIRERYADLAGRMSSRFYDENRFFSKELLFGRFDSTKPIYERLFPAFREYLDLYITLAKQTVEDDKSRSIIWQLQCEYDRYSAEKDPAMSLFRSYFGSTWAHRFVYEFLFENSRYESSLDNKT”, the “soluble on expression in E. coli” value is “soluble”. Turning to “GMDGASEIELVFRPHPTLMEKDDSAQTRYIKTSGNATVDHLSKYLAVRLALEELRSKGESNQMNLDTASEKQYTIYIATASGQFTVLNGSFSLELVSEKYWKVNKPMELYYA”, the “soluble on expression in E. coli” value is “soluble”.
